Data reported in publication PMC11074293.

Key:
KLHL22^1–178 (human) = KLHL22^1–178 (human) (UniProt Q53GT1); test: SEC-MALS; WTC-015S5 column, low salt buffer; complexes at 2 mg/ml, KLHL22^1–178 and KLHL12^1–161 alone at 3 mg/ml
KLHL12^1–161 (human) = KLHL12^1–161 (human) (UniProt Q53G59); test: as above
Chain of KLHL12^1–161 (human) (Q53G59 1-161): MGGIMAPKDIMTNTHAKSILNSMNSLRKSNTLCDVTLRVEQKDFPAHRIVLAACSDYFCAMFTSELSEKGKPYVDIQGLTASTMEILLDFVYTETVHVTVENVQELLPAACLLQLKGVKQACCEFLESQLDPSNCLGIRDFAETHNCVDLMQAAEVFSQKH

Chain of CUL3^Δ1–24-RBX1 (Q13618 25-768, stated change not applied): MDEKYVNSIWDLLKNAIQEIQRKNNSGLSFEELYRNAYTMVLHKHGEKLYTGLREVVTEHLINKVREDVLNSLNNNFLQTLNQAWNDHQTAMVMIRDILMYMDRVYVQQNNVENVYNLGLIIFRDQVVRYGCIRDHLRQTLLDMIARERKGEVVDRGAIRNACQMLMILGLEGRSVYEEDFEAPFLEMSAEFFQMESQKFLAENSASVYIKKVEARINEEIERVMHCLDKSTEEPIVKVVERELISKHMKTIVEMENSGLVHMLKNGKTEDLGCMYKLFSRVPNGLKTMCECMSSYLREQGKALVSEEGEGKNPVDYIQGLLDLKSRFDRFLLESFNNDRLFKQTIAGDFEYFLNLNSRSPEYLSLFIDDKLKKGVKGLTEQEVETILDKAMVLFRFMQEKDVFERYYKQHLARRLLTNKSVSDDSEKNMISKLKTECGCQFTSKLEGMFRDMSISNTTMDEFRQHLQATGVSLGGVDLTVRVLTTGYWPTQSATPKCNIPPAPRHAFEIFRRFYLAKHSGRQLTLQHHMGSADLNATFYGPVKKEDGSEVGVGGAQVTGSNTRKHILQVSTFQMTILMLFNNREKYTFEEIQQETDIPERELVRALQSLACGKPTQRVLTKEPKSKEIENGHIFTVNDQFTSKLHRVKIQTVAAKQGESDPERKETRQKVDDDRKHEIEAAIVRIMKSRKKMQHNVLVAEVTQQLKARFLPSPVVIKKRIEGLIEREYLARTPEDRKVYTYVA
Chain of CUL3^Δ1–24-RBX1 (P62877 whole entry, stated change not applied): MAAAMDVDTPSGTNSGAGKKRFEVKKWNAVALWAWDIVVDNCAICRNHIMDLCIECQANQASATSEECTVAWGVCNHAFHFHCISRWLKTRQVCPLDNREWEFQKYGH
Chain of KLHL22^1–178 (human) (Q53GT1 1-178): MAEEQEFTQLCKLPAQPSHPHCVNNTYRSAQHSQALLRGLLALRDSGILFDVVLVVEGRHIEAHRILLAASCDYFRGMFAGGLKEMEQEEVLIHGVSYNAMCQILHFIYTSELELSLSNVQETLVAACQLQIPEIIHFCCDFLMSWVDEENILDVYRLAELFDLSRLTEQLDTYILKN
Chain of CUL3^WT-RBX1 (Q13618 whole entry): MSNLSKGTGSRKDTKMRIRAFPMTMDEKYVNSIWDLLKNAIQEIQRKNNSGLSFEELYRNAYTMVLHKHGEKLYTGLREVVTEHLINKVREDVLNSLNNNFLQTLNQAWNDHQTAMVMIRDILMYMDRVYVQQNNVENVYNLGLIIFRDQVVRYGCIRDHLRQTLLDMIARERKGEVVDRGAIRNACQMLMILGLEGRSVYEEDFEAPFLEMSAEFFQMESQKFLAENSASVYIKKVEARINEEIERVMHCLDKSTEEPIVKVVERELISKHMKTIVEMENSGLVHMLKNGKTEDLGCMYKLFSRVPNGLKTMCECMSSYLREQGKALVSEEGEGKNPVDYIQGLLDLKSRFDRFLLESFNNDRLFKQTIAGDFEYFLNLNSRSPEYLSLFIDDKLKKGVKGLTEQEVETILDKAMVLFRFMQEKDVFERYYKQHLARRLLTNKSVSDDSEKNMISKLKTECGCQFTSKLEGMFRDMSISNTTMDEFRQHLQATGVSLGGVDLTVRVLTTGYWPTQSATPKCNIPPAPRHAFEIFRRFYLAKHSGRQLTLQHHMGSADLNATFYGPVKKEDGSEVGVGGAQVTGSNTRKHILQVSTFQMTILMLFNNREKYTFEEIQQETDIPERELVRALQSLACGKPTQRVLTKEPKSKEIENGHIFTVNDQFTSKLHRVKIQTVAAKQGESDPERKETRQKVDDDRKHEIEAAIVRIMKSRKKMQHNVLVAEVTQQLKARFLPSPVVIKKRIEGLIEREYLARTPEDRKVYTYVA
Chain of CUL3^WT-RBX1 (P62877 whole entry): as the sequence (P62877 whole entry, stated change not applied) above

| Substance | stoichiometry N (CUL3-RBX1 per KLHL22^1–178 dimer) (KLHL22^1–178 (human)) | stoichiometry N (CUL3-RBX1 per KLHL12^1–161 dimer) (KLHL12^1–161 (human)) |
| --- | --- | --- |
| CUL3^WT-RBX1 (from UniProt Q13618 1-768; P62877 1-108) (complex) | 2 | – |
| CUL3^Δ1–24-RBX1 (from UniProt Q13618 25-768; P62877 1-108) (complex) | 1 | 1 |
